T1: cynomolgus SIRPα (cySIRPα), protein antigen (cynomolgus monkey, UniProt A0A2K5VYQ9 31-369)
T1 construct: Coated on the plate in ELISA
T1 sequence: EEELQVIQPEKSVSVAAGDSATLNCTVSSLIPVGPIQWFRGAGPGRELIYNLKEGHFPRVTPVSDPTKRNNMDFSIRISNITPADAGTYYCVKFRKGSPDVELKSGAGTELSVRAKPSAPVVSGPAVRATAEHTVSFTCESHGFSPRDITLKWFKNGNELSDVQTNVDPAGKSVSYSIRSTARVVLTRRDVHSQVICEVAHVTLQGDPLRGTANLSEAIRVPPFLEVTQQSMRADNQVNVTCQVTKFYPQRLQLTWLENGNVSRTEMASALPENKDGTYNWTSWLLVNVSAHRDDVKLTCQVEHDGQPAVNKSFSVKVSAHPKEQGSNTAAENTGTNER

T2: cynomolgus SIRPα expressed on cells (cynomolgus monkey, UniProt A0A2K5VYQ9 31-507)
T2 construct: whole, on cells; also called ExpiCHO-S (cySIRPα)
T2 sequence: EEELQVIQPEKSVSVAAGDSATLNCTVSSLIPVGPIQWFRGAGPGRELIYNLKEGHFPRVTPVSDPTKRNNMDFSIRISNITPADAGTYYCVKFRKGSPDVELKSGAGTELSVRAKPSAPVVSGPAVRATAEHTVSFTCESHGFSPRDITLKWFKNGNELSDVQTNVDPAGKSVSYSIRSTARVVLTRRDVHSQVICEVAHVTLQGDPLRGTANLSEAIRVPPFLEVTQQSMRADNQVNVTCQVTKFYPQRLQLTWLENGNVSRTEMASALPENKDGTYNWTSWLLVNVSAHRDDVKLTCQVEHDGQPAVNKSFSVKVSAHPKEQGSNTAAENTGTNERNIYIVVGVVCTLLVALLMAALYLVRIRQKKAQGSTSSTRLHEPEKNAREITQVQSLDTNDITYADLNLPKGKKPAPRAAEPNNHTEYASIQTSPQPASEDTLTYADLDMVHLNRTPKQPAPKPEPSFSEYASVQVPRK


Assays:
[1] = target: human SIRPαBIT (huSIRPαBIT), protein antigen (human) (UniProt P78324); assay: SPR, biotinylated antigen captured, 25 C
human SIRPαBIT (huSIRPαBIT), protein antigen (human), sequence (P78324 31-370): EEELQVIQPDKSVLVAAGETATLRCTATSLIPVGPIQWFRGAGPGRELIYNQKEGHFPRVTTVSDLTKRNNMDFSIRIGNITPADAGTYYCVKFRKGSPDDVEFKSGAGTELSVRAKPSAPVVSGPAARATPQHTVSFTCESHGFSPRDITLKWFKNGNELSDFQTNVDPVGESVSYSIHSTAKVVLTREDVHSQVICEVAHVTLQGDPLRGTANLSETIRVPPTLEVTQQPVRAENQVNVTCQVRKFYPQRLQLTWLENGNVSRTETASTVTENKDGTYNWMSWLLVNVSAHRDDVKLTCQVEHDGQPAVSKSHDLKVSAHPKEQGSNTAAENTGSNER

[2] = target: T3, human SIRPα1 (huSIRPα1), protein antigen (human, UniProt P78324 31-370, limits assumed, biotinylated in the SPR assay); assay: SPR, biotinylated antigen captured, 25 C
T3 construct: Coated on the plate in ELISA, biotinylated and captured in SPR; also called v2
T3 sequence (P78324 other isoform, or with tags, fused parts or gaps limits assumed): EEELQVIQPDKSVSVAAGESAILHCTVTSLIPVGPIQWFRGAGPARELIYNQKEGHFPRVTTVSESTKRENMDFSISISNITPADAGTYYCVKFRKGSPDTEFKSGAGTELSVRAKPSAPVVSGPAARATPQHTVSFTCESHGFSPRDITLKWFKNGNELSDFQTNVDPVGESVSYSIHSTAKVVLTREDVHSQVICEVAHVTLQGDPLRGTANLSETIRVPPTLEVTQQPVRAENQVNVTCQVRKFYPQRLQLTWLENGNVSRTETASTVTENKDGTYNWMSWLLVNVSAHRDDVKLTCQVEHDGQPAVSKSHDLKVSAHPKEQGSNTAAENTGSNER
Description: (§1) Surface Plasmon Resonance (SPR) assay: Affinity analysis was performed by single cycle kinetics analysis on a Surface Plasmon Resonance apparatus (Biacore T200 system, GE Life Sciences) at 25° C. Biotinylated SIRP antigens were captured on the surface of a chip suitable for biotinylated molecules (Sensor Chip CAP, GE Life Sciences) by injecting 5 μg/ml of the SIRP antigen in running buffer (10 mM HEPES buffer at pH 7.4 with 150 mM NaCl, 3 mM EDTA and 0.005% v/v polyoxyethylene (20) sorbitan monolaurate (Surfactant P20) for 60 sec at 10 μL/min after injection of a streptavidin conjugate (20× diluted biotin CAPture reagent, GE Life Sciences) for 60 sec at 10 μl/min. Baseline stabilization was set at 1 min after which five increasing concentrations of an anti-SIRP antibody in running buffer (10 mM HEPES buffer at pH 7.4 with 150 mM NaCl, 3 mM EDTA and 0.005% v/v polyoxyethylene (20) sorbitan monolaurate) were injected. For each step an association time of 150 sec was used, followed by a dissociation time of 1200 sec at the highest concentration only, all at a flow rate of 30 μL/min. Regeneration was performed with 6 M guanidine-HCl, 0.25 M NaOH solution (60 sec with flow rate of 30 μL/min). Double blank subtraction was performed on the observed sensorgrams using a non anti-SIRP (blank) immobilized reference flow channel and running buffer injection. Sensorgrams were fitted with a 1:1 Langmuir model for all tested anti-SIRP antibodies. The kinetic parameters (kₐ, kd and KD) were calculated using the Biacore T200 evaluation software (v3.1).

human SIRPγ (huSIRPγ) [3] = target: T4, human SIRPγ (huSIRPγ) (human, UniProt Q9P1W8 29-360, limits assumed, biotinylated in the SPR assay); assay: SPR, biotinylated antigen captured, 25 C
T4 construct: Coated on the plate in ELISA, biotinylated and captured in SPR
T4 sequence (Q9P1W8 29-360 limits assumed): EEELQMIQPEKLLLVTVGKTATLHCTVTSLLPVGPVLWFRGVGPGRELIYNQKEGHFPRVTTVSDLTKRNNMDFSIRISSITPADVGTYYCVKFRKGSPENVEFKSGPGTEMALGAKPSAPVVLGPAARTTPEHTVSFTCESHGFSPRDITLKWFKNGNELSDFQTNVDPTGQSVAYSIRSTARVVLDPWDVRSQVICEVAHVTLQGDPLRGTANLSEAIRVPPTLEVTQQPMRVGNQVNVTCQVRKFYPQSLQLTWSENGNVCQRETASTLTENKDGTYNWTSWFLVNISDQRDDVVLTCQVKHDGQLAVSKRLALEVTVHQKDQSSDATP
Description: as §1

[4] = target: human SIRPαBIT (huSIRPαBIT), protein antigen (human) (UniProt P78324); assay: ELISA, antigen coated
[5] = target: human SIRPβ1v1 (huSIRPβ1v1) (human) (UniProt O00241); assay: ELISA, antigen coated
human SIRPβ1v1 (huSIRPβ1v1) (human), sequence (O00241 30-371): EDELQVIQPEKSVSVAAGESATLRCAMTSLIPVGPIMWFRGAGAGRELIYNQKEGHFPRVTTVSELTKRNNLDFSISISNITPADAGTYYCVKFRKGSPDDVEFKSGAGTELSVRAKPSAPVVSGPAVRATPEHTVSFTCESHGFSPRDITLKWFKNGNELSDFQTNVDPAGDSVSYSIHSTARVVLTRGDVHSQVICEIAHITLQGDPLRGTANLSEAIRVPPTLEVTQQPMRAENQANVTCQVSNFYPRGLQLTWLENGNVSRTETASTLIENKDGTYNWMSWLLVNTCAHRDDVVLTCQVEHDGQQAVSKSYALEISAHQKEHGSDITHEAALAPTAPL

[6] = target: human SIRPαBIT expressed on cells (human) (UniProt P78324); assay: flow cytometry, U937 cells
human SIRPαBIT expressed on cells (human), sequence (P78324 31-504): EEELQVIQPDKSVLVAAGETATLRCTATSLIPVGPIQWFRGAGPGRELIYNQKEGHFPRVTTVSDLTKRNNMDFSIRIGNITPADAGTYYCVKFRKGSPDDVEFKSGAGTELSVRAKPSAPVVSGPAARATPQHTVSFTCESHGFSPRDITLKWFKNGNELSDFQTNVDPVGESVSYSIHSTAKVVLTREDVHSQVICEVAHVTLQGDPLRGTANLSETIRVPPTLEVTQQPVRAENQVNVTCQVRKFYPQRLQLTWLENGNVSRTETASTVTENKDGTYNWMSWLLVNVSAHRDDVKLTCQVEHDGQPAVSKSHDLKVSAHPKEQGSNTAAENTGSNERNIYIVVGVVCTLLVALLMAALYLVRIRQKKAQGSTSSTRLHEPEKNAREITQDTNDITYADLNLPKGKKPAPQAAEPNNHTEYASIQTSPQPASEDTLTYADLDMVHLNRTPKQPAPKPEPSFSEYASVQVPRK

[7] = target: T3, human SIRPα1 (huSIRPα1), protein antigen; assay: ELISA, antigen coated
Description: (§2) ELISA assay: Solutions of huSIRPα₁, huSIRPαBIT, huSIRPβ₁ᵥ₁, huSIRPβ₁ᵥ₂, huSIRPγ and cySIRPα in phosphate buffered saline (PBS) were each added to a multiple well black polystyrene plate for ELISA and allowed to adhere for 1 h at RT. Unbound protein was removed with three washing steps using standard washing buffer. Subsequently, blocking buffer was added to the wells. After 1 h incubation at RT, the wells were washed three times with standard washing buffer. The antibodies in buffer at various concentrations were added to the wells and incubated at RT for 1 h. Unbound antibodies were removed with three washing steps using standard washing buffer. Goat anti human IgG (Fab′)₂:horse radish peroxidase (HRP) in buffer was added to the wells and incubated at RT for 1 h. 3,3′,5,5′-Tetramethylbenzidine (TMB) was added and after sufficient colour development HCl was added. Absorbance was read at 450 nm/620 nm.

[8] = target: T5, human SIRPβ1v2 (huSIRPβ1v2) (human, UniProt Q5TFQ8 30-371); assay: ELISA, antigen coated
T5 construct: Coated on the plate in ELISA; Only the Ensembl protein number is printed; also called huSIRPß1v2
T5 sequence (Q5TFQ8 30-371 limits assumed): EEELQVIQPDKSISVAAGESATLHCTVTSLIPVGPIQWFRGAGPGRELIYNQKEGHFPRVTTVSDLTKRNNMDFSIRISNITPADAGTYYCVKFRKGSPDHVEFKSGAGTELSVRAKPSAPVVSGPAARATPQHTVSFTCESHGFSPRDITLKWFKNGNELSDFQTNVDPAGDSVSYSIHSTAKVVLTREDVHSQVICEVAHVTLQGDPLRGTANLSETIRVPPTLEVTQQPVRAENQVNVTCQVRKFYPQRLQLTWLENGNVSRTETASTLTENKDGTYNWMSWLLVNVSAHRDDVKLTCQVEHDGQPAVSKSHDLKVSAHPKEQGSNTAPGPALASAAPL
Description: as §2

human SIRPγ (huSIRPγ) [9] = target: T4, human SIRPγ (huSIRPγ); assay: ELISA, antigen coated
Description: as §2

[10] = target: T1, cynomolgus SIRPα (cySIRPα), protein …; assay: ELISA, antigen coated
Description: as §2

[11] = target: human SIRPαBIT expressed on cells (human) (UniProt P78324); assay: flow cytometry, ExpiCHO-S cells
[12] = target: T2, cynomolgus SIRPα expressed on cells; assay: flow cytometry, ExpiCHO-S cells
Excerpt: Flow Cytometry: U937 cells endogenously expressing human SIRPαBIT antigen and cells derived from a non-engineered subclone that has been screened and isolated from CHO-S Chinese hamster ovary cells (ExpiCHO-S) cells expressing human SIRPα₁, SIRPαBIT or cySIRPα antigen (100,000 cells/well in a 96-well plate) were washed three times with ice-cold FACS buffer (1×PBS (LONZA) containing 0.2% v/w BSA (Sigma-Aldrich, St. Louis, Mo.) and 0.02% v/w NaN₃ (Sigma-Aldrich), followed by the addition of a concentration range of each primary mAb (50 μL/well) diluted in ice-cold FACS buffer. After an incubation time of 30 min at 4° C., the cells were washed three times with ice-cold FACS buffer and 50 μL/well secondary mAb (AffiniPure F(ab′)₂ fragment Goat-anti-human IgG-APC, 1:6,000 dilution, Jackson Immuno Research) was added. After 30 min at 4° C., cells were washed twice and resuspended in 150 μL FACS buffer. Fluorescence intensities were determined by flow cytometry (BD FACSVerse, Franklin Lakes, N.J.) and indicated as the median fluorescence intensity (MFI-Median) for U937 cells and ExpiCHO-S cells. Curves were fitted by nonlinear regression using the sigmoidal dose-response equation with variable slope (four parameters) in GraphPad Prism (version 7.02 for Windows, GraphPad, San Diego, Calif.). EC₅₀ values were calculated as the concentration in μg/mL that gives a response half way between bottom and top of the curve, when using a 4-parameter logistic fit.

Kd [1] [nM]	Kd [2] [nM]	Kd (human SIRPγ (huSIRPγ) [3]) [nM]	EC50 [4] [µg/mL]	EC50 [5] [µg/mL]	EC50 [6] [µg/mL]	EC50 [7] [µg/mL]	EC50 [8] [µg/mL]	EC50 (human SIRPγ (huSIRPγ) [9]) [µg/mL]	EC50 [10] [µg/mL]	EC50 [11] [µg/mL]	EC50 [12] [µg/mL]	Molecule
< 0.01			0.02	0.014	0.17		> 100	> 100	0.335	0.21	0.07	anti-SIRPα antibody 7 (antibody, human IgG1, kappa, L234A L235A, V domains shown, Chimeric: rabbit variable regions on human IgG1 LALA / kappa; also called chimeric antibody 7) VH: RSVEESGGRLVTPGTPLTLTCTVSGFSLSSHGISWVRQAPGKGLEYIGTIGTGVITYFASWAKGRFTGSKTSTTVDLKITSPTTEDTATYFCARGSAWNDPFDPWGPGTLVTVSS VL: ALVMTQTPASVSAAVGGTVTTKCQASQSVYGNNDLAWYQHKPGQPPKLLIYLASTLATGVPSRFSGSGSGTQFTLTITGVQSDDAATYYCLGGGDDEADNVFGGGTEVVVKR
					0.16							anti-SIRPα antibody 15 humanized (antibody, human IgG1, kappa, L234A L235A, V domains shown) VH: RSVEESGGRLVTPGTPLTLTCTVSGFSLSSHGISWVRQAPGKGLEYIGTIGTGVITYFASWAKGRFTGSKTSTTVDLKITSPTTEDTATYFCARGSAWNDPFDPWGPGTLVTVSS VL: ELVMTQSPSSLSASVGDRVTITCQASQSVYGNNDLAWYQQKPGEAPKLLIYLASTLATGVPSRFSGSGSGTDFTLTISGLQSEDFATYYCLGGGDDEADNVFGQGTKVEIKR
					0.23							anti-SIRPα antibody 16 humanized (antibody, human IgG1, kappa, L234A L235A, V domains shown) VH: RSVEESGGRLVTPGTPLTLTCTVSGFSLSSHGISWVRQAPGKGLEYIGTIGTGVITYFASWAKGRFTGSKTSTTVDLKITSPTTEDTATYFCARGSAWNDPFDPWGPGTLVTVSS VL: DIEMTQSPSSVSASVGDRVTLTCQASQSVYGNNDLAWYQQKPGQAPKLLIYLASTLATGVPSRFSGSGSGTDFTLTISSLQPEDFATYYCLGGGDDEADNVFGGGTKVEIKR
			0.02	> 100		0.021	0.024	> 100	0.033			anti-SIRPα antibody 6 (antibody, human IgG1, kappa, L234A L235A, V domains shown, Rabbit variable regions on human IgG1 LALA / kappa) VH: QSVEESGGRLVTPGTPLTLTCTVSGIDLSSYTMTWVRQAPGKGLEWIGIIYAGGSTAYASWAKGRFTISKTSTTVDLKITSPTTEDTATYFCARSSSDGYDYFNIWGPGTLVTVSL VL: GVVMTQTPSSVSAAVGGTVTINCQASQSIGSWLAWYQQKPGQPPKLLIYQASKLASGVPSRFSGRGSGTHFTLTISDVQSDDAATYYCQQTVTAASNVDNAFGGGTEVVVKR
			0.026	> 100	0.11	0.023	0.047	> 100	0.03			anti-SIRPα antibody 9 (antibody, human IgG1, kappa, L234A L235A, V domains shown, Rabbit variable regions on human IgG1 LALA / kappa) VH: QSMEESGGRLVTPGTPLTLTCTASGFSLSNYGVSWVRQAPGKGLEWIGIIYGGSDITAYASWAKGRFTISKTSTTVDLTITSPTTEDTATYFCAKSYTNGMDYYNIWGPGTLVTVSL VL: AFDLTQTPSSVEAPVGGTVIIKCQASQSISSYLAWYQQKPGQPPKLLIYSASTLASGVSSRFKGSGSETQFPLTISDLESADAATYYCQSYYGSRSNVFGGGTEVVVKR

More lines, now with the values behind:

Molecule	Kd [1] [nM]	Kd [2] [nM]	Kd (human SIRPγ (huSIRPγ) [3]) [nM]	EC50 [4] [µg/mL]	EC50 [5] [µg/mL]	EC50 [6] [µg/mL]	EC50 [7] [µg/mL]	EC50 [8] [µg/mL]	EC50 (human SIRPγ (huSIRPγ) [9]) [µg/mL]	EC50 [10] [µg/mL]	EC50 [11] [µg/mL]	EC50 [12] [µg/mL]
SE5A5 (antibody)	2.6	2.2	49									
29AM4-5huIgG1LALA (antibody, V domains shown, HAVT20 leader left out) VH: EVQLVESGGGLVQPGGSLRLSCAASGFNISYYFIHWVRQAPGKGLEWVASVYSSFGYTYYADSVKGRFTISADTSKNTAYLQMNSLRAEDTAVYYCARFTFPGLFDGFFGAYLGSLDYWGQGTLVTVSS VL: DIQMTQSPSSLSASVGDRVTITCRASQSVSSAVAWYQQKPGKAPKLLIYSASSLYSGVPSRFSGSRSGTDFTLTISSLQPEDFATYYCQQAVNWVGALVTFGQGTKVEIKR				0.009	0.013	0.25	0.009	0.017	0.034	0.011		
anti-SIRPα antibody 1 (antibody, human IgG1, kappa, L234A L235A, V domains shown, Rabbit variable regions on human IgG1 LALA / kappa) VH: QSVEESGGRLVTPGTPLTLTCTVSGIDLSSYAMSWVRQAPGKGLEWIGIISSGGITYYASWAKGRFTISKTSTTVDLKIPSPTTEDTATYFCARSLWAASNYYMALWGPGTLVTVSS VL: AIKMTQTPASVSAAVGGTVSINCQASEDIESYLAWYQQKPGQPPKLLIYRASTLASGVSSRFKGSGSGTQFTLTISDLESADAATYYCLGDYYSSSGDTGAFGGGTEVVVKR				0.021			0.039	0.058	0.043	0.305		
KWAR23 mouse IgG2a (antibody, V domains shown) VH: EVQLQQSGAELVKPGASVKLSCTASGFNIKDYYIHWVQQRTEQGLEWIGRIDPEDGETKYAPKFQDKATITADTSSNTAYLHLSSLTSEDTAVYYCARWGAYWGQGTLVTVSS VL: QIVLTQSPAIMSASPGEKVTLTCSASSSVSSSYLYWYQQKPGSSPKLWIYSTSNLASGVPARFSGSGSGTSYSLTISSMEAEDAASYFCHQWSSYPRTFGAGTKLELK	< 0.01	< 0.01	< 0.01									

From patent US20220195063A1 (BYONDIS B V, published 2022)
